A short description of the series: yeast display, Sf9 membrane polyspecificity reagent, FACS + sequencing; frameworks hold sequencing errors. In short, it runs like this: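 A nanobody's polyreactivity label depends on the gate it was sorted from. Yeast display cells were stained with 10% biotinylated, detergent-solubilized Sf9 membrane reagent for 1 hour at 4 °C, enriched on streptavidin microbeads and sorted by FACS. The low and high (top ~1%) gates were set on anti-HA fluorescence for expression and streptavidin fluorescence for reagent binding.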
Take “QVQLVESGGGLFQAGGSLRLSCAASGITFAQYAMGWYRQAPGKDRELVAVISSGGSTNYADSVKGRFTISRDNAKNTVYLQMNSMKPEDTAVYYCNADEAAPVYSYYYWGQGTQVTVSS”: the “polyreactivity (PSR sort gate)” value is “low polyreactivity”.

Regarding “QVQLVESGGGLFQAGGSLRLSCAASGITFTRYAMGWYRQAPGKEREFVAAIRRSGGNTYYADSVKGRFTISRDNAKNTVYLQMNSLNPEDTAVYYCAASLRKTSPTRLVDYWGQGTQVTVSS”, the “polyreactivity (PSR sort gate)” value is on record as “low polyreactivity”.

On to “QVQLVESGGGLFQAGGSLRLSCAASGITLAYNAMGWYRQAPGKEREFVAAIDVSGGRTYYADSVKVRFTISRDKSKNTVNLQMNSLNPEDTAVYYCAADVAEFSVGYWQDYDYWGQGTQVTVSS”, for which the “polyreactivity (PSR sort gate)” value was “low polyreactivity”.

Turning to “QVQLVESGGGLFQAGGSLRLSCAASGLTFYVYAMGWYRQAPGKERELVAAITQNGGTTYYADSVKGRFTISRDNAKNTVYLQMNSLKPEDTAVYYCAAGNRSLGGRLYRYYYWGQGTLVTVSS”, the “polyreactivity (PSR sort gate)” value is reported as “high polyreactivity”.

Turning to “QVQLVESGGGLFQAGGSLRLSCAASGNIFVDYDMGWYRQAPGKERELDATITGTGDSTTYADSVKGRFTISRDIAKNTVYLQMNSLKPEDTAVYYCNTDLRLVYRTKGFISWGYDYWGQGTQVTVSS”, the “polyreactivity (PSR sort gate)” value is reported as “low polyreactivity”.

Take “QVQLVESGGGLFQAGGSLRLSCAASGRIFSYNNMGWYRQAPGKERELVAAISTSGGSTYYADSVKGRFTLSRDNAKNTVYLQMNSLKPEDTAVYYCNTVWTFRTSTNYDYWGQVTQVTVSS”: the “polyreactivity (PSR sort gate)” value is listed as “low polyreactivity”.

As to “QVQLVESGGGLFQAGGSLRLSCAASGRIYPTYTMGWYRQAPGKERQLVAAINRGGGSTYYADSVKGRFTISRDYAKNTVYLQMICLKPEDTAVYYCNARTYYRSYGYDYWGQGTQVTVSS”, the “polyreactivity (PSR sort gate)” value is on record as “low polyreactivity”.

“QVQLVESGGGLFQAGGSLRLSCAASGRTFQVNAMAWYRHAPGKERELVAAISASDGSTYADSVKGRFTISRDNAKNTVYLQMNSLKPEDTAVYYCNKADYGGHRTSEQVGWVYLYDYWGQGTQVTVSS”: the “polyreactivity (PSR sort gate)” value is on record as “low polyreactivity”.

Turning to “QVQLVESGGGLFQAGGSLRLSCAASGRTFVKYDMGWYRHAPGKERELVAAISRRGGSTYYADSVKGRFTISRDNAKNTVYLQMNSLKPEDTAVYYCNAVHPKDVDSYRDRDYWGQGTQVTVSS”, the “polyreactivity (PSR sort gate)” value is “high polyreactivity”.

Turning to “QVQLVESGGGLFQAGGSLRLSCAASGSIFTKYAMGWYRQAPGKERELVAAISQGGASTRYADSVKGRFTISRDNAKKTVYLQMNSLKPEDTAVYYCAAKSRHFWMDYWGQATQVTVSS”, the “polyreactivity (PSR sort gate)” value was “high polyreactivity”.

In the case of “QVQLVESGGGLFQAGGSLRLSCAASGSIFWPNTMGWYRQAPGKERELVATISSGGDTSYADSVKGRFTISRDNEKNTVYLQMNSLKPEDTAVYYLAKSITVDDVHPRALTYNYWGQGTQVTVSS”, the “polyreactivity (PSR sort gate)” value is “low polyreactivity”.

“QVQLVESGGGLFQAGGSLRLSCAASGSTFGWYGMGWYRHAPGKERELVAAISLSDGGTYYADSVKGRFTISRDNAKNTVYLQMNSLKPEDTAVYYCAADYYDSGWYGYWGQGTQVTVSS”: the “polyreactivity (PSR sort gate)” value is listed as “high polyreactivity”.

For the sequence “QVQLVESGGGLFQAGGSLRLSCAASGSTFHYNNMGWYRQAPGKERELVAAISWLGDPTYYADSVKGRFTISRDNAKNTVYLQMNSLKPEDTSVYFCNAVRLSRYRPNPFGYGHWGQGTQVTVSS”, the “polyreactivity (PSR sort gate)” value was “high polyreactivity”.

As to “QVQLVESGGGLFQAGGSLRLSCAASGSTFVKYAMGRSRPAPAKERELVAAINRSGASTYYADSVKGRFTISRDNATNTVNLQMISLKPEDTAVYYCAARFSWLGYYWGQGTQETVSS”, the “polyreactivity (PSR sort gate)” value was “high polyreactivity”.

Consider “QVQLVESGGGLFQAGGSLRLSCAASGSTLGSNAMGWYRQAPGKERELVAAITWSGGTTYYADSLKGRFTISRDNAKNTVYLQMNSLKPEDTAVYYCAPGQSVIYRYEFWGQGTQVTVSS”, for which the “polyreactivity (PSR sort gate)” value was “low polyreactivity”.

Consider “QVQLVESGGGLFQAGGSLRLSCAASGSTLRDYVMGWYRQAPGKERELVAAISWTGDRTYYADSVKGRFTISRDNAKNTVYLQMNSLKPEDTAVYYCNAVYHVTRQGNLDSWGQGTQVTVSS”, for which the “polyreactivity (PSR sort gate)” value is reported as “low polyreactivity”.

For the sequence “QVQLVESGGGLFQAGGSLRLSCAASVITFSQYVMGWYRQAPGKERELVAAISYRGGTTYYADSVKGRFTISRDNAKNTVYLQMISLKPEDTAVYYCATLPQRQYSTRDYWGQGTQVTVSA”, the “polyreactivity (PSR sort gate)” value is listed as “high polyreactivity”.

“QVQLVESGGGLFQAGGSLRLSCAPSGFTFSWYDMGWYRQAPGKERELVAAISLSGDRTYYADSVKGRFTISRDNAKNTVYLQMNSLKPEDTAVYYCAADERVDQCWIRMDYWGQGTQVTVSS”: the “polyreactivity (PSR sort gate)” value is listed as “low polyreactivity”.

For “QVQLVESGGGLFQAGGSLRLSCAPSGIFRYYVMGWYIQAPGKERELVAAISWGGGSTYYADSVKGRFTISRDNPKNTVYLQMNSLKPEDTAVYYCAARDLRKLYSRYPYYYWGQGTQVTVSS”, the “polyreactivity (PSR sort gate)” value is “high polyreactivity”.

Take “QVQLVESGGGLFQAGGSLRLSCAPSGNNFYGNDMGWYRQAPGKERDLVAAISRGGSTYYADSVKGRFTSSRDNAMNTVYLQMNSLKPEDSEVFYCAADYAYTTISWDDYWGQGTLVTVSS”: the “polyreactivity (PSR sort gate)” value is “low polyreactivity”.

Turning to “QVQLVESGGGLFQAGGSLRLSCASSGFIFVRYAMGWYIQAPGKERELVAGINSGGSTSYADSVKGRFTISRDNAKNSVYLQMNSLKPEDTAVYYCAAAKFRRGTRYYYCGQGTQVTVSS”, the “polyreactivity (PSR sort gate)” value was “high polyreactivity”.

With “QVQLVESGGGLFQAGGSLRLSCDASGRNFSGNAMGMYRQAPGKERELVAAITWSGSSTFYADSVKGLFTISRDYAKNTVYFQMNSLKPEDTAVYYCAVDSSSPVRPHSDEDYWGQGTQVTVSS”, the “polyreactivity (PSR sort gate)” value is on record as “low polyreactivity”.

As for “QVQLVESGGGLFQAGGSLRLSSAASGSIFHPYAMGWYRQAPGKERELVAAISSSTGRTYYADYVKGRFTISRDNAKNTVYLQMNSLKPEDTAVYYCAARKKYSEFDYWGQGTQVTVSS”, the “polyreactivity (PSR sort gate)” value is listed as “high polyreactivity”.

In the case of “QVQLVESGGGLFQAGGSLRLTCAASGSTISDYAIGWYRQAPGKERELVAAISTRGGSTYYADSVKGRFTISRDNAKNTVYLQMNSLKPEDTAVYYCAKGGYVPKLEYWGQGTQVTVSS”, the “polyreactivity (PSR sort gate)” value is “high polyreactivity”.

In the case of “QVQLVESGGGLFQAGRSLRLSCAASGITFGYYGMGWYRQAPVKERELVATISQRGGSTYYAVSVKGRFTISRDNAKNTVYLQMNSLKPEDTAFYYSNADAYRYYDYDLLFHYDYWGQGTQVTVSS”, the “polyreactivity (PSR sort gate)” value was “low polyreactivity”.

Take “QVQLVESGGGLFQEGGSLRLSCAASGIISKYYAMGWYRQAPGKERELVAAITRSGTSTYYADSVKGRFTISRDNAKNSVYLQMNSLKPEDTAVYYCAAVSGGRTPRYDYWGQGTQVTVSS”: the “polyreactivity (PSR sort gate)” value was “high polyreactivity”.

Take “QVQLVESGGGLFQEGGSLRLSCAASGRIFSYYAMGWYRQAPGKERELVAGISSGGRTNYADSVKGRFTISRDNAKNTVYLQMNSLKPEDTAVYYCIARSFSLYWAYNYWGQGTQVTVSL”: the “polyreactivity (PSR sort gate)” value was “high polyreactivity”.

Regarding “QVQLVESGGGLFQEGGSLRLSCAASGSIFSYYAMGWYRQAPGKERELVAAISTYGGRTYYADSVKGRFTISRDNAKNTVYLQMNSLKPEDTAVYYCAGPVRWKNYDYWGQGTPVTVSS”, the “polyreactivity (PSR sort gate)” value is “high polyreactivity”.

“QVQLVESGGGLFQTGGSLRLSRAASGRTFRYYVMGWYRQAPWKESELVAAISWSGGRTNYADSVKGRFTISRDNAKNTVYLQMNCLKPEDTSVYYCIAAGPALRRYDYWGQGTQVTVSS”: the “polyreactivity (PSR sort gate)” value is recorded as “high polyreactivity”.

Take “QVQLVESGGGLGQAGGSLGLSCAASGRTFYVNAMGWYRQAPGKERELVAAISWSGGSTYYADSVKGRFTISRDNAKNTVYLPINSLNPEDTAVYYCAAEDIEDYEYWGQGTQVTVSS”: the “polyreactivity (PSR sort gate)” value is “low polyreactivity”.

“QVQLVESGGGLGQAGGSLRLICAASGSIFYSNAMGWYRQATGKERELVAAISWNGGRTYYADSVKGRFTISRDTAKNTVYLQMNSLKPEDTAVYFWAAKYRNRYDFWGQGTQVTVSS”: the “polyreactivity (PSR sort gate)” value is reported as “low polyreactivity”.

On to “QVQLVESGGGLGQAGGSLRLICAASGSTFRHYAMGWYRPAPRKERELVAVISWGGTSTYYADSVKGRFTISRDNAKNTVYLQMNSLKPEDTAVYYCNKAYFPIFKGYEMYYWGQGTQVTVSS”, for which the “polyreactivity (PSR sort gate)” value is recorded as “low polyreactivity”.

As to “QVQLVESGGGLGQAGGSLRLSCAASGFIFGPYAMGWYRQARGKETELVAAISSSGGSTSYADSVKGRFTISRDNAKNTVYLQMNSLKPEDTAVYYCAARGRYRFYSNNYDYWGQGTQVTVSS”, the “polyreactivity (PSR sort gate)” value is “high polyreactivity”.

“QVQLVESGGGLGQAGGSLRLSCAASGGTFYYYAMGWSRQAPGKERELVAAITESGGSTYYGDSVKGRFTISRDNAKNTVNLQMNSLKPEDTAVYYCAAETYYGDDGYWGQGTQVTVSS”: the “polyreactivity (PSR sort gate)” value is on record as “low polyreactivity”.

“QVQLVESGGGLGQAGGSLRLSCAASGIIFYPNAMGWYRQAPGKERELVAAISCRSGSTYYADSVKGRITISRDNEKNTVYLQMNSLKPEDTSVYYCAADRRRSYIWRYDYWGQGTQVTVSS”: the “polyreactivity (PSR sort gate)” value is reported as “low polyreactivity”.

For “QVQLVESGGGLGQAGGSLRLSCAASGITYDGYAMGWYRQAPGKERELVAAITYSGGRTYYADSVKGRFTISRDNAKNTVYLQMNSLKPEDTAVYYCAVVSRRLYEYDYWGQGTQVTVSS”, the “polyreactivity (PSR sort gate)” value is “high polyreactivity”.

For “QVQLVESGGGLGQAGGSLRLSCAASGNTFYWNAMGWYRQAPGKERELVAAISTTGVSSYYADSVKGRFTISRDNAKNSVYLQMNSLKPEDTAVYYCAGEIIGYHTIYDYWGQGTQVTVSS”, the “polyreactivity (PSR sort gate)” value was “low polyreactivity”.

Turning to “QVQLVESGGGLGQAGGSLRLSCAASGSTFQIYAMGWYREAPGKEWEFVAAITSSSSTNYADSVKGRFTISRDNAKNTVYLQMNSLKPEDTAVYYCAADVSWRSNWYDYWGQGTQVTVSS”, the “polyreactivity (PSR sort gate)” value was “low polyreactivity”.

Take “QVQLVESGGGLGQAGGSLRLSCAASGYTFRNYVMGWYRPAPGKERQLVATISRGGRTNYADSVKGRFTISRDNAKNTVYLQMNSLKPEDTAVYYCNADWSRVPYRYDYWGQGTQVTVSS”: the “polyreactivity (PSR sort gate)” value is given as “high polyreactivity”.

With “QVQLVESGGGLGQAGGSLRLSSAASGRTVSTNDMGWYRHAPGKERELVAAIDFDSDSTYYADSVKGRFTISRDNAKNTVYLQMHSLKPEDTAVYYCAAQYFSYGESYEYWGQGTHVTVSS”, the “polyreactivity (PSR sort gate)” value is recorded as “low polyreactivity”.

Consider “QVQLVESGGGLGQAGGSLRLSSAASGSIFWFYAMGWYRQAPGKERELVAAITSSGGTDYADSVKGRFSISRDNAKNTVYLQMNSLKPEDSAVYYCAADRIGGPGSYLYDYWGQGTQVTVSS”, for which the “polyreactivity (PSR sort gate)” value is listed as “low polyreactivity”.

These data come from the nanobody polyreactivity screen of Harvey et al. (2022).
